PMC10269722, “LexR Positively Regulates the LexABC Efflux Pump Involved in Self-Resistance to the Antimicrobial Di-N-Oxide Phenazine in Lysobacter antibioticus”

T1: LexR (Lysobacter antibioticus OH13, UniProt A0A0S2F3V0 1-384)
T1 sequence: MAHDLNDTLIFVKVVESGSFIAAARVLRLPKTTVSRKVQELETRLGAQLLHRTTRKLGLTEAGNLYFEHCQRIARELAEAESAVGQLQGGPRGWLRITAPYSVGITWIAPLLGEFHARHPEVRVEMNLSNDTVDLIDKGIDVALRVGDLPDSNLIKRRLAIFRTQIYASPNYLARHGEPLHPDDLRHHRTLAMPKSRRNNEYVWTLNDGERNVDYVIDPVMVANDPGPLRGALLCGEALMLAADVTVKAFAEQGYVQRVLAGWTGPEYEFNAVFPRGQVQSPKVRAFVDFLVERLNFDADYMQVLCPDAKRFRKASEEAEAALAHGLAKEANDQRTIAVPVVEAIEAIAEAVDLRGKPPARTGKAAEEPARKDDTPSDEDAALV

B1: probe 2 (50 bp, 8-bp site deleted) (dsDNA)
DNA 1: ACTTGATTAGCCACTGATTCAGGGACCCGACATCGGGCCAATGCCCTCTC
DNA 2: GAGAGGGCATTGGCCCGATGTCGGGTCCCTGAATCAGTGGCTAATCAAGT
B2: probe 4 (probe 3 with putative LexR site) (dsDNA)
DNA 1: GGCTCCGCGCCTGCCAGCATAATTGTTCGTTGTCTGGGGGCTAGGGCGAGACACCCGC
DNA 2: GCGGGTGTCTCGCCCTAGCCCCCAGACAACGAACAATTATGCTGGCAGGCGCGGAGCC
B3: control probe (158 bp) (dsDNA)
DNA 1: ATGCGCCTCGCGATCAACACGGTCGCATCCCCTCTTTGCCAGCCACGGCTCCGCGCCTGCCAGCTTCTTTTTTCGTTGTCTGGGGGCTAGGGCGAGACACCCGCATACCGATGACTTCGTCGGCAGTGGCCCAAGACGGATTGCGTAGTGCGCCTACG
DNA 2: CGTAGGCGCACTACGCAATCCGTCTTGGGCCACTGCCGACGAAGTCATCGGTATGCGGGTGTCTCGCCCTAGCCCCCAGACAACGAAAAAAGAAGCTGGCAGGCGCGGAGCCGTGGCTGGCAAAGAGGGGATGCGACCGTGTTGATCGCGAGGCGCAT
B4: lex probe (165 bp) (dsDNA)
DNA 1: ATGGGAGAAACGCGAATCGGGCTTGTCGGGGGCTCAACATGGCGGGGGGCCTCGTGTCGATCTGCGGCAAAGAGTAGAGAGATGGACGGCACTTGATTAGCCACTGATTCAGGGAATAATTGTCCCGACATCGGGCCAATGCCCTCTCTGCCTCCTTGAATGCCC
DNA 2: GGGCATTCAAGGAGGCAGAGAGGGCATTGGCCCGATGTCGGGACAATTATTCCCTGAATCAGTGGCTAATCAAGTGCCGTCCATCTCTCTACTCTTTGCCGCAGATCGACACGAGGCCCCCCGCCATGTTGAGCCCCCGACAAGCCCGATTCGCGTTTCTCCCAT
B5: unlabeled lex probe (165 bp) (dsDNA)
DNA 1: B4 DNA 1
DNA 2: B4 DNA 2
B6: probe 1 (58 bp) (dsDNA)
DNA 1: ACTTGATTAGCCACTGATTCAGGGAATAATTGTCCCGACATCGGGCCAATGCCCTCTC
DNA 2: GAGAGGGCATTGGCCCGATGTCGGGACAATTATTCCCTGAATCAGTGGCTAATCAAGT

Key:
LexR [1] = target: T1, LexR; assay: EMSA; EMSA (LightShift kit): 1x binding buffer, 50 ng/uL poly(dI-dC), 2.5% glycerol, 5 mM MgCl (so in the source), 0.05% NP-40, 5 fmol labeled probe in 20 uL, 30 min, room; conditions: protein: recombinant; tags: His6 (pET-28a, BamHI/EcoRI); chain copies: 2; label: 5' biotin; blunt
LexR [2] = target: T1, LexR; assay: EMSA; no myxin; EMSA (LightShift kit): 1x binding buffer, 50 ng/uL poly(dI-dC), 2.5% glycerol, 5 mM MgCl (so in the source), 0.05% NP-40, 5 fmol labeled probe in 20 uL, 30 min, room; conditions: protein: recombinant; tags: His6 (pET-28a, BamHI/EcoRI); chain copies: 2; label: 5' biotin; blunt
LexR [3] = target: T1, LexR; assay: competition; unlabeled competitor vs biotin-lex probe; EMSA (LightShift kit): 1x binding buffer, 50 ng/uL poly(dI-dC), 2.5% glycerol, 5 mM MgCl (so in the source), 0.05% NP-40, 5 fmol labeled probe in 20 uL, 30 min, room; conditions: protein: recombinant; tags: His6 (pET-28a, BamHI/EcoRI); chain copies: 2; label: none; blunt

Row | Binder | binding result (LexR [1]) | other results
1 | B1 | no binding | 
2 | B2 | no binding | 
3 | B3 | no binding | 
4 | B4 |  | binding result (LexR [2]): binds
5 | B5 |  | binding result (LexR [3]): binds
6 | B6 | binds | 
